Where two headings read alike, the source gives them in different places.
Assays:
[1] = target: Histones H3–H4 (H3 C110A-H4 E63C), Alexa488-labeled (Xenopus laevis); experiment: fluorescence polarisation; 10 nM Alexa488-labeled H3–H4 with increasing CAF-1, Polϵ, Polδ or RPA; 25 mM TRIS pH 7.5, 300 mM NaCl, 5% glycerol, 1 mM EDTA, 0.01% IGEPAL, 0.01% CHAPS, 1 mM DTT; one site binding curve
[2] = target: PCNA (Saccharomyces cerevisiae) (UniProt P15873); settings: cited from earlier work
[3] = target: PCNA (Saccharomyces cerevisiae) (UniProt P15873); settings: cited from earlier work; remark: listed apart in the source
[4] = target: Proliferating Cell Nuclear Antigen (PCNA), wild type (yeast) (UniProt P15873)
[5] = target: PCNA K164C, labeled with Alexa Fluor 546 (yeast) (UniProt P15873); experiment: cross-linking; limiting PCNA: 50 nM AF546-PCNA K164C loaded on nicked pUC19 (15 nM) by full-length RFC (15 nM), CAF-1 titrated 0-1 μM, 100-110 mM NaCl; 0.2% glutaraldehyde; nuclease digestion; SDS-PAGE, PCNA fluorescence, band intensities; affinities estimated

Chromatin Assembly Factor-1 (CAF-1), wild type (from UniProt Q12495 1-606; Q04199 1-468; P13712 1-422) (complex)
Kd [1]: 1.1 nM

DNA polymerase epsilon (from UniProt P21951)
Kd [2]: 326 nM

DNA polymerase delta (from UniProt P15436)
Kd [3]: 13.7 nM

DNA polymerase epsilon (Polϵ) (complex)
Kd [1]: 28 nM | maximum leading-strand replication rate in pulse-chase with the yeast replisome (+RFC/PCNA, Polδ omitted) with 180 nM CAF-1 added; ∼1.09 kb/min without CAF-1 [4]: 0.85 kb/min

CAF-1_ΔAD mutant (acidic domain deleted) (from UniProt Q12495 1-606; Q04199 1-468; P13712 1-422) (complex)
Kd [5]: < 50 nM

— paper PMC10164577
